Consider two molecules from paper PMC4135234.

Read-outs that look alike come from different tables or passages of the source.

The target in data set [1] is T1, GST-FLAG-MSI2 (human, UniProt Q96DH6 1-328). Nature of the data set: competition.
For data set [2], the target named is T1, GST-FLAG-MSI2. Description: competition. This is another data set of the same source.
Another data set has as its target GST-FLAG-MSI1 (human, UniProt O43347 1-362). Nature of the data set: competition.
In another data set the target is T2, GST-FLAG-LIN28A (human, UniProt Q9H9Z2 1-209).
T2 sequence: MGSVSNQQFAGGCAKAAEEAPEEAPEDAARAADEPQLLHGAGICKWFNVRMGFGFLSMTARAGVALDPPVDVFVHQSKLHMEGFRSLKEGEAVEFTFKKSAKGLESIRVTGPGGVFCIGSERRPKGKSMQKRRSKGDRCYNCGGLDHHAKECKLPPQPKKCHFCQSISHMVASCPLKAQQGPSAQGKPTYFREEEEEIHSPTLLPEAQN
Nature of the data set: competition.

The target of the next data set is GST-FLAG-p53 (human, UniProt P04637 1-393). Description: fluorescence polarization. (In general: Fluorescence polarisation rises when a labelled molecule tumbles more slowly, as on binding a larger partner.)
Chain of GST-FLAG-p53 (P04637 whole entry): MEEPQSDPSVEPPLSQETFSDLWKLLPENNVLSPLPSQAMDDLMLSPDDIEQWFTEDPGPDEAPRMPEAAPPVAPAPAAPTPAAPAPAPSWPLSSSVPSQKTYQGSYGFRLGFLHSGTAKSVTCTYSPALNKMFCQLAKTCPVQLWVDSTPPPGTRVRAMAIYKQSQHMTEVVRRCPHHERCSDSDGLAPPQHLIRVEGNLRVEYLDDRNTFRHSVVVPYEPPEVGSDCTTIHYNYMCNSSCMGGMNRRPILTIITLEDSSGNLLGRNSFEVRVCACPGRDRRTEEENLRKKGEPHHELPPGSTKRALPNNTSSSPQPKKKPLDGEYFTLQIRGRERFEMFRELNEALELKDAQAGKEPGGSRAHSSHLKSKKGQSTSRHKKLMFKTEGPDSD

One may read the IC50 as the concentration needed to halve the response being measured.

T1 sequence (Q96DH6 whole entry): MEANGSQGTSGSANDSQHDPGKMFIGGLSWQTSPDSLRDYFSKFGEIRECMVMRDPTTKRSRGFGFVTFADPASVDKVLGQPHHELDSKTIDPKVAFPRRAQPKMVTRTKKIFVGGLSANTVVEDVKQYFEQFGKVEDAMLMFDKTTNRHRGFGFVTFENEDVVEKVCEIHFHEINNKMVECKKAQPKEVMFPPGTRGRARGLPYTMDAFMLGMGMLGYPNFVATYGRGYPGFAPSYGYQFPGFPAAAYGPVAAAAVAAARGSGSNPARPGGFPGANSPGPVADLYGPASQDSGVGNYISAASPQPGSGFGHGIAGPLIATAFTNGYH
Chain of GST-FLAG-MSI1 (O43347 whole entry): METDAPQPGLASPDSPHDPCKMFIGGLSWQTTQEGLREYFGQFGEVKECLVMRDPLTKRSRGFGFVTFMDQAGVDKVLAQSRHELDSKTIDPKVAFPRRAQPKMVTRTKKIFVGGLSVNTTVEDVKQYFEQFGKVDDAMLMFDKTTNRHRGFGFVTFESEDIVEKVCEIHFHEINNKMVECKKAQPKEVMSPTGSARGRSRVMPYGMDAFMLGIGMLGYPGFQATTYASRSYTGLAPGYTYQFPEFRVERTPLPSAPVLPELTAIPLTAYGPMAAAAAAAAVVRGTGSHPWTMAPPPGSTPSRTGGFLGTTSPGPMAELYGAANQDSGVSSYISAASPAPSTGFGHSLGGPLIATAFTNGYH

GUAGUAGU (ssRNA) [MSI Oligo #5 (unlabeled MSI FP oligo)]: the half-inhibitory concentration (IC50) in the data set with GST-FLAG-MSI2 [1] is 1300 ± 200 nM; with GST-FLAG-MSI2 [2], 4.6 µM; in the data set with GST-FLAG-MSI1 it was 5.6 µM; with GST-FLAG-LIN28A, 500 nM.

Regarding GUAGUAGU (ssRNA, 5' C9 spacer) [MSI FP oligo (Cy3-C9-Oligo #5)], the binding result with GST-FLAG-p53 is “no binding”.
